Literature values in PMC4131687.

Columns and labels:
[1] = target: NaV1.2 (Rattus norvegicus) (UniProt P04775)
[2] = target: NaV1.4 (Rattus norvegicus) (UniProt P15390)
Sequence of NaV1.4 (Rattus norvegicus) (P15390 whole entry): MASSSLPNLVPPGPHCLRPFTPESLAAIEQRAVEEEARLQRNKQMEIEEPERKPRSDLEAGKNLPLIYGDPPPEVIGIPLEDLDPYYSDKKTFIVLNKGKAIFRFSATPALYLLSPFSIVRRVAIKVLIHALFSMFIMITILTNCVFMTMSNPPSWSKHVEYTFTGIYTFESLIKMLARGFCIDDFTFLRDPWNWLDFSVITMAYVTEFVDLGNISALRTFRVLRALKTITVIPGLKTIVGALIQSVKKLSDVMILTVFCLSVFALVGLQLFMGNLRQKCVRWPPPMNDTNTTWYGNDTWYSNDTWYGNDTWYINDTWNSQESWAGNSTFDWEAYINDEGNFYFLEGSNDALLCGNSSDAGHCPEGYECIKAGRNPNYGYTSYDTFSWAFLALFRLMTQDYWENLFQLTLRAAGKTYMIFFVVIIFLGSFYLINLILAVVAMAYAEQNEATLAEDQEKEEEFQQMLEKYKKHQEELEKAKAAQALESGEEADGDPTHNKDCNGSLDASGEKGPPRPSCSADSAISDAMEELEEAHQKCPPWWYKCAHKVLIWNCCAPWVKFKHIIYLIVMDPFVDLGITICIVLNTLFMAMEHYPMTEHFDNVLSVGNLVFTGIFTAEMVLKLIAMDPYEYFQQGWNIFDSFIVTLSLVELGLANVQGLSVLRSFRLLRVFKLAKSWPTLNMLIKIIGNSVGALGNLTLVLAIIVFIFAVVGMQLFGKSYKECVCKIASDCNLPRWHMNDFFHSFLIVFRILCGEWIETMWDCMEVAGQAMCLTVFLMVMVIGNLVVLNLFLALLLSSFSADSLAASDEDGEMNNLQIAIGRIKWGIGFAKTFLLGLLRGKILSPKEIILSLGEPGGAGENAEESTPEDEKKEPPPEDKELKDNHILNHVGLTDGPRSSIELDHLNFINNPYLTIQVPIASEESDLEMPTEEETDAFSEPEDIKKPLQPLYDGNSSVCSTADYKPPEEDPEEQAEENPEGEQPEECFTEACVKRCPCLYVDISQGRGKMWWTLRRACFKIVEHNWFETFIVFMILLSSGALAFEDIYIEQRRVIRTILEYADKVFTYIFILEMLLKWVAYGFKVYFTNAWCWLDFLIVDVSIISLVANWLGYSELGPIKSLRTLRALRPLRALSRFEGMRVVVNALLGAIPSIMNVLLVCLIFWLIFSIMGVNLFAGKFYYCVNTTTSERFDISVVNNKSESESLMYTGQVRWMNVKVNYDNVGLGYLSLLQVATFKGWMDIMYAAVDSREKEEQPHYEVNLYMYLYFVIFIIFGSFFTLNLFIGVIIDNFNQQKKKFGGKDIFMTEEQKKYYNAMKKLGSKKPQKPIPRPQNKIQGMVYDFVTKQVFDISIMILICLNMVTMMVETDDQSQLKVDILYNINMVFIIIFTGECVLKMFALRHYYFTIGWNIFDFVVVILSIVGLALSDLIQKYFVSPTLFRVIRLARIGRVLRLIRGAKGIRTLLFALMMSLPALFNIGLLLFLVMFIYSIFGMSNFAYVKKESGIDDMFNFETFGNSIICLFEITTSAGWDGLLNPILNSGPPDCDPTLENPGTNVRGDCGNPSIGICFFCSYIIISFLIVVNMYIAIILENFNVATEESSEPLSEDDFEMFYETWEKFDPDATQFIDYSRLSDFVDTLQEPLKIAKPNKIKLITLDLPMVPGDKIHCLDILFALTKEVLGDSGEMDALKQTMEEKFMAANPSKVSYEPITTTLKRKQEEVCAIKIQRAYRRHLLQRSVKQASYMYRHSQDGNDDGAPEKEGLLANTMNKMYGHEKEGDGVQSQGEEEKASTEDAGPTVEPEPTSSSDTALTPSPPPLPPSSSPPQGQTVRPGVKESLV

Sequence of NaV1.2 (Rattus norvegicus) (P04775 whole entry): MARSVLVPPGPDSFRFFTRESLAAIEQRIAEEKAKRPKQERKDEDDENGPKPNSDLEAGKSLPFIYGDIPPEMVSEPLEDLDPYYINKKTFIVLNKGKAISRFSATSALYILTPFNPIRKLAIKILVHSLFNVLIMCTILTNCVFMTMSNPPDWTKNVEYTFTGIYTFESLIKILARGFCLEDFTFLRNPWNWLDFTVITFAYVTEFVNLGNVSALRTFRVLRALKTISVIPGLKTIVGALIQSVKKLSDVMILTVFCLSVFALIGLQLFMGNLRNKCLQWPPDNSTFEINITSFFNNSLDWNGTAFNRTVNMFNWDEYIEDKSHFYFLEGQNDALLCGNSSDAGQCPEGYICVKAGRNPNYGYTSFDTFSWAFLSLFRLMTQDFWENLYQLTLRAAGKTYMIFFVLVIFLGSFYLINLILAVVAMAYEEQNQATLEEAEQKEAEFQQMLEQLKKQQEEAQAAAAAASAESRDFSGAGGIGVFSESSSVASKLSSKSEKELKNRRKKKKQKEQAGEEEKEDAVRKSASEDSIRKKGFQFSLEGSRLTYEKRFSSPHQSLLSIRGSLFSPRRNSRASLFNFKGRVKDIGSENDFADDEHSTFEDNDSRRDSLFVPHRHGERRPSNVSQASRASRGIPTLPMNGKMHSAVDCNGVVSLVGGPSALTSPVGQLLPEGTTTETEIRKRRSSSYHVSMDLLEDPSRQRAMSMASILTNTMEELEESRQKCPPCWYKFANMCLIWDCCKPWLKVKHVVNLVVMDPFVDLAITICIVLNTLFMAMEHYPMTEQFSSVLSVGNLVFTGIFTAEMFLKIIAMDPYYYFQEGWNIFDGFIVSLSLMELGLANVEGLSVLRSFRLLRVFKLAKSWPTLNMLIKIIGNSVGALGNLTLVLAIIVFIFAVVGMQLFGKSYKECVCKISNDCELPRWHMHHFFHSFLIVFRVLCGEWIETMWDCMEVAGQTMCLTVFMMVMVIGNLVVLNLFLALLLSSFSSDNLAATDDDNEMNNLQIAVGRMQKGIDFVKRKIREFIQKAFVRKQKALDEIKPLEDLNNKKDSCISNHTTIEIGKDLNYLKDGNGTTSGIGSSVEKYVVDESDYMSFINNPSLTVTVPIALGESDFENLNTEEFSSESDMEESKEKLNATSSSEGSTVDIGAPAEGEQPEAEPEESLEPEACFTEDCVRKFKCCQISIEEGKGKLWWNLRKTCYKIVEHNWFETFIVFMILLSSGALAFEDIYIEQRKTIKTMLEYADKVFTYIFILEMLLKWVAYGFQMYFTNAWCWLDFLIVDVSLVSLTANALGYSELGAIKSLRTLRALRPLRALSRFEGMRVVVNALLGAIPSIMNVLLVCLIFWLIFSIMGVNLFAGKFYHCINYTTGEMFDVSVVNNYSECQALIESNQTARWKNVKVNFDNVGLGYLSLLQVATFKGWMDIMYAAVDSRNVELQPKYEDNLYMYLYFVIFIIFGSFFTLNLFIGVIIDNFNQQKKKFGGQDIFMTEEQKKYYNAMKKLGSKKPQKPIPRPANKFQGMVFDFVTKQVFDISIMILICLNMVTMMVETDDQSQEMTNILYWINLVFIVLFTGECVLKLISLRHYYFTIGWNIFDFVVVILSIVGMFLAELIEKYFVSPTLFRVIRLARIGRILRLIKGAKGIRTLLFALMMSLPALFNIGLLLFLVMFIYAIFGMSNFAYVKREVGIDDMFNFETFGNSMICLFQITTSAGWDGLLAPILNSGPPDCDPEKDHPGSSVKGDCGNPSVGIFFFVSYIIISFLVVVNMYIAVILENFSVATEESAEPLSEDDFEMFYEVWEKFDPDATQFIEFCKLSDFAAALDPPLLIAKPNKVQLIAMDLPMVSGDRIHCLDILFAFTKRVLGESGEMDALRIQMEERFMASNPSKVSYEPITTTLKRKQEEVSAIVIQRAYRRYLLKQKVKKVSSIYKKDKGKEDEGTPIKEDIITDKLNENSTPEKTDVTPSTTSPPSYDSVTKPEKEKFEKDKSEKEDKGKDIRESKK

| Substance | Kd [1] | Kd [2] |
| --- | --- | --- |
| μ-conotoxin KIIIA-P1 (from UniProt P0C195) | 5 nM | – |
| mu-conotoxin KIIIA (from UniProt P0C195) | – | 50 nM |
